The target of data set [1] is T1, DnaA wild-type (Bacillus subtilis, UniProt P05648 1-446). The data set can be described thus: EMSA; 1 mM ADP; single shifted species; EMSA: 25 nM scaffold, 0-250 nM DnaA, 10 mM HEPES-KOH pH 8, 100 mM potassium glutamate, 1 mM magnesium acetate, 30% glycerol, 10% DMSO, 1 mM ADP or ATP, 20°C 2 h; 6% PAGE in 45 mM Tris, 45 mM boric acid, 5 mM MgCl2. Conditions: protein: recombinant; tags: N-terminal His-tag removed with Factor Xa; label: 5' Cy3 on strand 1; 5' Cy5 on strand 2; blunt; 3 strands, nick between strands 1 and 2, both annealed to strand 3. For orientation: A gel shift assay detects complexes by their altered migration in electrophoresis.

In data set [2] the target is DnaA I190A (Bacillus subtilis, UniProt P05648 1-446, I190A). The data set can be described thus: EMSA; 1 mM ADP; shift similar to wild-type; EMSA: 25 nM scaffold, 0-250 nM DnaA, 10 mM HEPES-KOH pH 8, 100 mM potassium glutamate, 1 mM magnesium acetate, 30% glycerol, 10% DMSO, 1 mM ADP or ATP, 20°C 2 h; 6% PAGE in 45 mM Tris, 45 mM boric acid, 5 mM MgCl2. The following applies: protein: recombinant; tags: N-terminal His-tag removed with Factor Xa; label: 5' Cy3 on strand 1; 5' Cy5 on strand 2; blunt; 3 strands, nick between strands 1 and 2, both annealed to strand 3.

For data set [3], the target named is T1, DnaA wild-type. Briefly: EMSA; 1 mM ADP; up to 250 nM DnaA; EMSA: 25 nM scaffold, 0-250 nM DnaA, 10 mM HEPES-KOH pH 8, 100 mM potassium glutamate, 1 mM magnesium acetate, 30% glycerol, 10% DMSO, 1 mM ADP or ATP, 20°C 2 h; 6% PAGE in 45 mM Tris, 45 mM boric acid, 5 mM MgCl2. Conditions: protein: recombinant; tags: N-terminal His-tag removed with Factor Xa; label: 5' Cy5 on strand 2; blunt; 3 strands, nick between strands 1 and 2, both annealed to strand 3.

Consider two molecules from PMC6669920, “Identification of a basal system for unwinding a bacterial chromosome origin”.

B1: Wild-type short scaffold (DnaA-box#6/7 + DnaA-trios), oHM752/oHM590/oHM558 (dsDNA)
DNA 1: ACTTATCCACAAATCCACAGGCCC
DNA 2: TACTATTACTTCTACTA
DNA 3: TAGTAGAAGTAATAGTAGGGCCTGTGGATTTGTGGATAAGT
Regarding B1, the binding result in data set [1] and in data set [2] was “binds” each time.

B2: ΔDnaA-boxes long scaffold, oHM753/oHM590/oHM754 (dsDNA)
DNA 1: CGTTCGGCTGCGGCGAGCGGTATCAGCTCACTCAAAGGCGGTAATACGGCTTCCTTGCTTCCTTGCGGCCC
DNA 2: TACTATTACTTCTACTA
DNA 3: TAGTAGAAGTAATAGTAGGGCCGCAAGGAAGCAAGGAAGCCGTATTACCGCCTTTGAGTGAGCTGATACCGCTCGCCGCAGCCGAACG
Take B2: the binding result in data set [3] was “no binding”.
